Ends that are not written are not given here.
How the values were obtained:
[1] = biological target: HAdV-5 virion (E1/E3-deleted, replication-defective HAdV-5 vector with eGFP cassette) (human adenovirus 5 (HAdV-5)) (UniProt P04133); assay: co-sedimentation
[2] = biological target: HAdV-64 virion (E3 deleted, replication-competent HAdV-64 virus with CMV-eGFP ORF, WT HAdV-64 capsid) (human adenovirus 64 (HAdV-64)); assay: co-sedimentation

B1: Human defensin 5 (peptide)
peptide: ATCYCRTGRCATRESLSGVCEISGRLYRLCCR
modifications: disulfide (positions not given here); also: oxidatively folded
stoichiometry N (molecules of HD5 per virion) [1]: 7090 | fold less HD5 bound per virion than to HAdV-5 at 20 µM HD5 [2]: 83 fold

From publication doi:10.1101/2020.05.08.079574
